Test results: patent publication US6342220 (Genentech, dated 2002)

Target: T1, mpl-Ig (human, UniProt P40238 26-491, limits assumed)
T1 construct: From conditioned media of mpl-Ig-transfected 293 cells; also called mpl-IgG; not shown: human IgG Fc (the fusion is captured with rabbit anti-human IgG Fc)
T1 sequence (looked up): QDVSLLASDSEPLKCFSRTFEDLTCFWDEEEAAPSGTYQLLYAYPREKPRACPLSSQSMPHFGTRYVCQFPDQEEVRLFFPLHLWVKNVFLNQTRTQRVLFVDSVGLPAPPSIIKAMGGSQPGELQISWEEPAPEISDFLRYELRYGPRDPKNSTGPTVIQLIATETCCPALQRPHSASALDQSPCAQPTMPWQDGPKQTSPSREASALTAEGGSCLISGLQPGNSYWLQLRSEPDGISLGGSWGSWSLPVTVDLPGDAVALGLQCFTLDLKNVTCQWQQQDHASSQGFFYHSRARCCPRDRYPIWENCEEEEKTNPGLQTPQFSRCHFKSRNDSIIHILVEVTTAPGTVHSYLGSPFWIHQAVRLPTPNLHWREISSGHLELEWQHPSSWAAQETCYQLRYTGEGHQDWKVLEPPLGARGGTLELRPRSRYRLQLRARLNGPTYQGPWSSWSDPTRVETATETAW
Assay: competition ELISA, biotinylated TPO on captured mpl-Ig

- IC50: 0.64 nM
B1: 12E10 Fab′2 (other)
VH: QVQLQQSGPGLVKPSETLSLTCTVSGDSISSYYWSWIRQPPGKGLEWIGYIYYSGSTNYNPSLKSRVTISVDTSKSQFSLKLSSVTAADTAVYYCARGRYFDVWGRGTMVTVSS
VL: SYVLTQPPSVSGSPGQSITISCTGTSSDVGGYNYVSWYQQHPGKAPKLMIYEGSKRPSGVSNRFSGSKSGNTASLTISGLQAEDEADYYCSSYTTRSTRVFGGGTKLTVL
notes: F(ab′)2 with leucine zipper; A lambda version of the Fab′2 vector is not described; copies: 2 + 2
